According to patent publication US10184137B2, “Method of producing isoprene monomer” (AJINOMOTO CO., INC., priority 2014, dated 2019):
“And” between values parts separate entries of the source, which are not always exact repeats. Identical values can stand only once.

What was measured:
Type in all cases: biochemical
[1] = tested on: mevalonate kinase; test: Measurement of activity and Km value of purified mevalonate kinase (PK/LDH coupled, 340 nm); conditions: for dABS/min at mev 0.01 mM: potassium mevalonate 0.01 mM; for dABS/min at ATP 5 mM / dABS/min at mev 0.01 mM / dABS/min at mev 0.04 mM / dABS/min at mev 0.2 mM: ATP 5 mM; for dABS/min at mev 0.04 mM: potassium mevalonate 0.04 mM; for dABS/min at mev 0.2 mM: potassium mevalonate 0.2 mM
Protocol: Each obtained plasmid was used for transformation of E. coli BL21(DE3). […] When OD600 reached approximately 0.5, 0.1 mM IPTG (for cva, mma, nmr, and sce) or 1 mM (for mcl and mpd) of IPTG was added, and then the mixture was kept at 20° C. overnight to induce the target protein. Harvested cells were suspended in buffer solution A (50 mM sodium phosphate, 0.3 M NaCl and 20 mM Imidazol), and then the cells were disrupted with an ultrasonic disruptor (TOMY: UD-201). […] After centrifugation (28,000×g, 30 min), the supernatant was adsorbed onto His-Trap HP (GE Healthcare) to elute the target protein by linear concentration gradient of Imidazol (final concentration 0.5 M). Obtained protein was dialyzed by using an external solution composed of 20 mM Tris-HCl (pH 8.0) containing 1 mM DTT and 50 mM NaCl. Dialyzed protein was designated as purified enzyme. Protein quantity was measured with Bio-RAD protein assay kit and BSA standard condition.
(§1) Decrease in absorbance at 340 nm at 30° C. was measured to determine the enzyme activity. JASCO Corporation's spectrophotometer (V-650) was used in this study. Millimolar extinction coefficient of NADH used in this study was 6.22 mM^−1 cm^−1. […] Km value was calculated by Lineweaver-Burk plot.
Measured activity of each enzyme (JABS/min) was presented on Table 9 for the calculation of apparent Km value (Km app.) of each enzyme. Table 10 presents Km app., Vmax, molecular weight of the enzyme protein, protein concentration in the enzyme solution and calculated kcat.
Activity was indicated by dABS/min when 10 μl of each enzyme was added to 1 ml of reaction solution.

[2] = tested on: mevalonate kinase; test: Examination of product inhibition on each mevalonate kinase (absorbance at 386 nm, PMK addition); conditions: 1 mM mevalonate as substrate; in words
Protocol: When decrease in absorbance stopped, purified PMK was added to measure further decrease in absorbance at 386 nm.
FIG. 18 presents the SDS-PAGE profile of the purified PMK. […] Then, absorbance decreased further and finally absorbance at 386 nm decreased to 0.3 in all reaction systems. Therefore, it is inferred that mevalonate is converted into diphosphomevalonate via phosphomevalonate by adding PMK to each MVK.

[3] = tested on: mevalonate kinase; test: Inhibition of each mevalonate kinase by DMAPP, GPP, FPP or DPM
Protocol: Since GPP and FPP solutions contain methanol, methanol which was needed to keep the same methanol level at the addition to the reaction system was added to the reaction solution, which was designated as control.
Respective effect of the added 5 mM DMAPP, 0.1 mM GPP, and 0.1 mM FPP on the activity of each enzyme was measured. […] Contrarily, mcl-derived enzyme was activated by 5 mM DMAPP and its activity increased by 20% from that of the control.
Activity when 10 μl of each enzyme was added to 1 ml of the reaction system was represented by dABS/min
Effect of 1 mM diphosphomevalonate (DPM) on each enzyme was also studied.

[4] = tested on: mevalonate kinase; test: Expression analysis and activity confirmation of His-tagged mevalonate kinases from pET-21a(+) and pET-28b(+); conditions: His-spinTrap eluate after dialysis, 10 μl enzyme solution
Protocol: Each obtained plasmid was used for transformation of E. coli BL21(DE3). […] When OD600 reached approximately 0.5, IPTG was added to the solution to final concentration of 1 mM. It was then cultured overnight at 20° C. Harvested cells were suspended in the buffer solution consisting of 50 mM sodium phosphate, 0.3 M NaCl and 20 mM Imidazol. Then the cells were disrupted with an ultrasonic disruptor (TOMY: UD-201, output level=3.5). After centrifugation (20,000×g, 20 min), disrupted cells were adsorbed to His-spinTrap (GE Healthcare). After washing with the same buffer solution, protein was eluted with the buffer solution consisting of 50 mM sodium phosphate, 0.3 M NaCl and 0.5 M imidazole (pH7.5). Eluate was dialyzed overnight at 4° C. with the external solution composed of 20 mM Tris-HCl (pH7.5) and 50 mM NaCl. Then, enzyme activity of each eluate in the internal dialysis solution was measured.
Activity of the internal dialysate (about 0.2 ml each) was measured with the 10 μl of enzyme solution (Table 8). Enzyme expression level was compared on activity basis between pET-21a(+) and pET-28b(+). […] It is inferred that expression level is higher in pET-28b(+). Therefore, purified enzyme expressed in pET-28b(+) was used in the further examinations.
Values were presented by decrease in absorbance per unit time per 10 μl in the enzyme reaction measurement system (dABS/min/10 μl).
as §1

[5] = potassium mevalonate 5 mM, 10 μl enzyme in 1 ml, replicate values
[6] = 10 μl enzyme in 1 ml, replicate values
[7] = Table 11 control without terpenyl diphosphate (methanol added)

Row | Molecule | dABS/min at ATP 0.2 mM [1, 5] | dABS/min at ATP 1 mM [1, 5] | dABS/min at ATP 5 mM [1, 5] | dABS/min at mev 0.01 mM [1, 6] | dABS/min at mev 0.04 mM [1, 6] | dABS/min at mev 0.2 mM [1, 6] | course of decrease in absorbance at 386 nm until PMK addition [2] | enzyme activity, Control [3, 7] [dABS/min] | enzyme activity, Control ([3]; Table 12 control without DPM) [dABS/min] | enzyme activity, pET21 system (C terminal Tag) [4] [dABS/min/10 μl] | enzyme activity, pET28 system (N terminal Tag) [4] [dABS/min/10 μl] | dABS/min at ATP 0.04 mM ([1]; ATP 0.04 mM, potassium mevalonate 5 mM, 10 μl enzyme in 1 ml, replicate values) | affinity to mevalonate and ATP compared with the other enzymes ([1]; in words)
1 | sce: mevalonate kinase of Saccharomyces cerevisiae encoded by the ERG12 gene, His-tagged purified enzyme (protein, UniProt P07277 1-443, looked up, His-tag) Mevalonate kinase: MSLPFLTSAPGKVIIFGEHSAVYNKPAVAASVSALRTYLLISESSAPDTIELDFPDISFNHKWSINDFNAITEDQVNSQKLAKAQQATDGLSQELVSLLDPLLAQLSESFHYHAAFCFLYMFVCLCPHAKNIKFSLKSTLPIGAGLGSSASISVSLALAMAYLGGLIGSNDLEKLSENDKHIVNQWAFIGEKCIHGTPSGIDNAVATYGNALLFEKDSHNGTINTNNFKFLDDFPAIPMILTYTRIPRSTKDLVARVRVLVTEKFPEVMKPILDAMGECALQGLEIMTKLSKCKGTDDEAVETNNELYEQLLELIRINHGLLVSIGVSHPGLELIKNLSDDLRIGSTKLTGAGGGGCSLTLLRRDITQEQIDSFKKKLQDDFSYETFETDLGGTGCCLLSAKNLNKDLKIKSLVFQLFENKTTTKQQIDDLLLPGNTNLPWTS | 0.03041 dABS/min and 0.0304 dABS/min and 0.03229 dABS/min | 0.07032 dABS/min and 0.07022 dABS/min and 0.0702 dABS/min | 0.09422 dABS/min and 0.0941 dABS/min and 0.09418 dABS/min | 0.01813 dABS/min and 0.01981 dABS/min and 0.01853 dABS/min | 0.05257 dABS/min and 0.05264 dABS/min and 0.05265 dABS/min | 0.11 dABS/min and 0.1103 dABS/min (2×) | almost linear decrease in absorbance | 0.1365 | 0.1028 | 0.001 | 0.127 | – | –
2 | mpd: mevalonate kinase derived from Methanocella paludicola (SEQ ID NO:1), His-tagged purified enzyme (protein, listed as Methanocella paludicola, His-tag) MTMCSAPGKVFLFGEHAVVYGKRAIACAIDLRTTVEVSRKSRGVHIHSAFKDEPDKNLYIKTAVKRMQKCADIRNVNIAVSSRIPVASGLGSSAAVTVATIGALNEEFSAGLSKKDIAYMAYQTELEVQGAASPTDTFVSTMGGTVVVPDMRTLPPITCGIVVGHTGISKSTSRMVSRVRTLKEKYPDVIDGIMDSIGDISARGEDLIKQNDYRSIGELMNVNQGLLDALGITIPELSLQIYAARQHGAYGAKITGAGGGGCMVAICDDKNCKEIATAIGRSYGDSFISKPTAEGIFIQ | 0.03262 dABS/min and 0.03252 dABS/min and 0.0325 dABS/min | 0.04713 dABS/min and 0.04701 dABS/min and 0.04689 dABS/min | 0.05141 dABS/min (2×) and 0.05155 dABS/min | 0.06401 dABS/min and 0.0638 dABS/min and 0.06377 dABS/min | 0.1211 dABS/min and 0.1213 dABS/min and 0.121 dABS/min | 0.1506 dABS/min (2×) and 0.1505 dABS/min | almost linear decrease in absorbance | 0.1573 | 0.148 | 0.011 | 0.031 | 0.01369 dABS/min and 0.01352 dABS/min and 0.01403 dABS/min | higher affinity to mevalonate and ATP than the other enzymes
3 | cva: mevalonate kinase derived from Corynebacterium variabile (SEQ ID NO:3), His-tagged purified enzyme (protein, His-tag; Corynebacterium variabile) MAPHVGHGQTVAKIILFGEHSVVYGHPAIAMPLRTLRMIARVEPTDGPGTLSGLGWTGPITEAPARFSSIVKAAEVASDFAGHPGAGLNISTESEFPPERGLGSSAAAAGAVIRAVLDAFDTPATPRELFDLTQEAETVAHGRPSGLDAVATSAEAPVHFQAGQATDLEFSPDAWIVIADSGVEGSTRETVGHVRGRFEAEPDIITALLNRLGEITDEVVVDLRTGDVQGMGARMTEAHGILGQLGVSNTQLDALVTASLGAGALGAKLTGGGRGGCVIALAATEEDAENVEKALVDAGARGTWVHAPATGQMAGEVMQ | 0.005822 dABS/min and 0.005967 dABS/min and 0.005722 dABS/min | 0.02063 dABS/min and 0.02015 dABS/min and 0.02051 dABS/min | 0.03739 dABS/min and 0.03744 dABS/min and 0.03741 dABS/min | 0.01264 dABS/min and 0.01267 dABS/min and 0.01265 dABS/min | 0.03701 dABS/min and 0.03703 dABS/min and 0.03697 dABS/min | 0.0771 dABS/min and 0.07712 dABS/min and 0.07711 dABS/min | almost linear decrease in absorbance | 0.08338 | 0.07328 | 0.019 | 0.211 | – | –
